The record followed here is patent publication US20160017025A1 (RAMOT AT TEL AVIV UNIVERSITY, published 2016).

Ends that are not written are not given here.

In assay [1] the target is T1, APP MAP peptide WT (wild type = ISEVKMDA x8), APP aa 666-673 (also: multiple antigenic peptide, 8 copies, core not described).
T1 construct: Eight copies of the octapeptide as a multiple antigenic peptide; the branching core is not described; also called WT peptide
T1 peptide: ISEVKMDA
The assay is described as follows: BIAcore SPR; reference BBS1. On the procedure: (§1) The affinity of new MAbs was assessed by BIAcore. Protein G was immobilized on the CM5 chip as capturing molecule for the different mAbs. Each mAb (ligand) was bound separately to Protein G, and different APP MAP peptides were added separately to the liquid phase (analytes) at different concentrations to test the affinity of the mAb to each peptide. Each mAb was tested for its affinity to the different APP MAP peptides for aa 666-673 WT (wild type=[…], SEQ ID NO:18), IP (immunizing peptide=[…], SEQ ID NO:15), and SW ([…], SEQ ID NO:17). The chip was regenerated by HCl after each cycle of mAb-peptide.
(In general: SPR reads the build-up and loss of mass on a sensor chip optically.)

For assay [2], the target named is T2, APP MAP peptide IP (immunizing peptide = ISEVKLDA x8), half-Swedish mutation (also: multiple antigenic peptide, 8 copies, core not described).
T2 construct: Eight copies as a MAP; the core is not described; also called MAP1-IP
T2 peptide: ISEVKLDA
Description: BIAcore SPR; mAb captured on Protein G on CM5 chip, MAP peptide as analyte. As to the method: as §1

Assay [3] concerns the target T3, APP MAP peptide SW (double Swedish mutation = ISEVNLDA x8) (also: multiple antigenic peptide, 8 copies, core not described).
T3 construct: Eight copies as a MAP; the core is not described
T3 peptide: ISEVNLDA
The description is as above. On the procedure: as §1

Assay [4] addresses T1, APP MAP peptide WT (wild type = …). Described as above. On the procedure:
as §1

B1: F5.100 (BBS3) mAb (antibody, mouse IgG1, kappa, V domains shown)
VH: EVQLQQSGPELVKPGASVKISCKASGYTFTDYNMHWVKQSHGKRLEWIGYIYPHNGGTGYNQRFKSKATLTVDKSSSTAYMELRSLTSEDSAVYYCARPGTEAYWGQGTLVTVSA
VL: DIVMTQSQKFMSTSVGDRVSVTCKASQNVGTNVAWYQQKPGQSPKPLIYSASYRYSGVPDRFTGSGSGTDFTLTISNVQSEDLAEYFCQQFNSYPLTFGAGTKLELKR
notes: Mouse hybridoma IgG1; The mature N-termini were found as EVQLQ (H chain; D = residue 21); also called F5.100 mAb; murine BBS3 mAb
B1: the “fold improvement in affinity over BBS1” value in assay [1] worked out at 1000 fold. Moreover, the Kd was determined as 3.8 nM in assay [2], 8.8 nM in assay [3] and 1.5 nM in assay [4].

B2: F5.87 mAb (antibody, mouse IgG1, kappa, V domains shown)
VH: EVKLEESGGGLVQPGGSMKLSCAASGFTFSNAWMDWVRQSPEKGLEWVAEIRSKANNHATYYGESVKGRFTISRDDSKSSVYLQMNSLRAEDTGIYYCTATVRGGYWGQGTTLTVSS
VL: DIKMTQSPSSMYASLGERVTITCKASQDINSYLSWFQQKPGKSPKTLIYRANRLVDGVPSRFSGSGSGQDYSLTISSLEYEDMGIYYCLQYDEYPYTFGGGTKLEIKR
notes: Mouse hybridoma IgG1
On to B2, for which the “fold improvement in affinity over BBS1” value in assay [1] came to 1000 fold. The Kd in assay [2] worked out at 1.2 nM; in assay [3], 1.1 nM; in assay [4] it was 3.3 nM.
